# In patent US20240368267A1 (KODIAK SCIENCES, published 2024):
# Positions count from the first letter of the chain named. Names and notes keep the numbering of the source.
# B1: anti-IL-6 Fab, heavy chain A105K (Fab, V domains shown)
# VH: EVQLVESGGGLVQPGGSLRLSCAASGFTFSPFAMSWVRQAPGKGLEWVAKISPGGSWTYYSDTVTGRFTFSLDTSKSTAYLQMNSLRAEDTAVYYCARQLWGYYKLDIWGQGTLVTVSS
# VL: DIQLTQSPSSLSASVGDRVTITCSASISVSYMYWYQQKPGKAPKLLIYDMSNLASGVPSRFSGSGSGTDFTLTISSLQPEDFATYYCMQWSGYPYTFGQGTKVEIK
# notes: built as m22 plus the named change
# B2: anti-IL-6 Fab, heavy chain A105Q (Fab, V domains shown)
# VH: B1 VH with K105Q
# VL: B1 VL
# notes: as for B1
# B3: anti-IL-6 Fab, heavy chain L100Q (Fab, V domains shown)
# VH: B1 VH with L100Q, K105A
# VL: B1 VL
# notes: as for B1
# B4: anti-IL-6 antibody, heavy chain G66D / light chain WT (antibody, human IgG1, V domains shown)
# VH: B1 VH with G66D, K105A
# VL: B1 VL
# notes: Derived as m2; Engineered human IgG1
# B5: anti-IL-6 antibody, heavy chain WT / light chain WT (antibody, human IgG1, V domains shown)
# VH: B1 VH with K105A
# VL: B1 VL
# notes: Full antibody on an engineered human IgG1 framework, Fc with L234A, L235A, G237A and L443C (EU numbering), expressed in Expi293 cells; also called wild-type; parent molecule
# B6: anti-IL-6 antibody, heavy chain T63K, G66D / light chain WT (antibody, human IgG1, V domains shown)
# VH: B1 VH with T63K, G66D, K105A
# VL: B1 VL
# notes: as for B4
# B7: anti-IL-6 antibody, heavy chain S35H, G66D / light chain WT (antibody, human IgG1, V domains shown)
# VH: B1 VH with S35H, G66D, K105A
# VL: B1 VL
# notes: as for B4
# B8: anti-IL-6 antibody, heavy chain T65Q, G66D / light chain WT (antibody, human IgG1, V domains shown)
# VH: B1 VH with T65Q, G66D, K105A
# VL: B1 VL
# notes: as for B4
# B9: anti-IL-6 antibody, heavy chain T63Q, G66D / light chain WT (antibody, human IgG1, V domains shown)
# VH: B1 VH with T63Q, G66D, K105A
# VL: B1 VL
# notes: as for B4
# B10: anti-IL-6 antibody, heavy chain T63E, G66D / light chain WT (antibody, human IgG1, V domains shown)
# VH: B1 VH with T63E, G66D, K105A
# VL: B1 VL
# notes: as for B4
# B11: anti-IL-6 antibody, heavy chain T65D, G66D / light chain WT (antibody, human IgG1, V domains shown)
# VH: B1 VH with T65D, G66D, K105A
# VL: B1 VL
# notes: as for B4
# B12: anti-IL-6 antibody, heavy chain T65P, G66D / light chain WT (antibody, human IgG1, V domains shown)
# VH: B1 VH with T65P, G66D, K105A
# VL: B1 VL
# notes: as for B4
# B13: anti-IL-6 antibody, heavy chain T65W, G66D / light chain WT (antibody, human IgG1, V domains shown)
# VH: B1 VH with T65W, G66D, K105A
# VL: B1 VL
# notes: as for B4
# B14: anti-IL-6 antibody, heavy chain T65A, G66D / light chain WT (antibody, human IgG1, V domains shown)
# VH: B1 VH with T65A, G66D, K105A
# VL: B1 VL
# notes: as for B4
# B15: anti-IL-6 antibody, heavy chain T63S, G66D / light chain WT (antibody, human IgG1, V domains shown)
# VH: B1 VH with T63S, G66D, K105A
# VL: B1 VL
# notes: as for B4
# B16: anti-IL-6 antibody, heavy chain T63P, G66D / light chain WT (antibody, human IgG1, V domains shown)
# VH: B1 VH with T63P, G66D, K105A
# VL: B1 VL
# notes: as for B4
# B17: anti-IL-6 antibody, heavy chain T65F, G66D / light chain WT (antibody, human IgG1, V domains shown)
# VH: B1 VH with T65F, G66D, K105A
# VL: B1 VL
# notes: as for B4
# B18: anti-IL-6 antibody, heavy chain T63Y, G66D / light chain WT (antibody, human IgG1, V domains shown)
# VH: B1 VH with T63Y, G66D, K105A
# VL: B1 VL
# notes: as for B4
# B19: anti-IL-6 antibody, heavy chain T65Y, G66D / light chain WT (antibody, human IgG1, V domains shown)
# VH: B1 VH with T65Y, G66D, K105A
# VL: B1 VL
# notes: as for B4
# B20: anti-IL-6 antibody, heavy chain T65L, G66D / light chain WT (antibody, human IgG1, V domains shown)
# VH: B1 VH with T65L, G66D, K105A
# VL: B1 VL
# notes: as for B4
# B21: anti-IL-6 antibody, heavy chain T65S, G66D / light chain WT (antibody, human IgG1, V domains shown)
# VH: B1 VH with T65S, G66D, K105A
# VL: B1 VL
# notes: as for B4
# B22: anti-IL-6 antibody, heavy chain T65E, G66D / light chain WT (antibody, human IgG1, V domains shown)
# VH: B1 VH with T65E, G66D, K105A
# VL: B1 VL
# notes: as for B4
# B23: anti-IL-6 antibody, heavy chain T65H, G66D / light chain WT (antibody, human IgG1, V domains shown)
# VH: B1 VH with T65H, G66D, K105A
# VL: B1 VL
# notes: as for B4
# B24: anti-IL-6 antibody, heavy chain T65G, G66D / light chain WT (antibody, human IgG1, V domains shown)
# VH: B1 VH with T65G, G66D, K105A
# VL: B1 VL
# notes: as for B4
# B25: anti-IL-6 antibody, heavy chain T63R, G66D / light chain WT (antibody, human IgG1, V domains shown)
# VH: B1 VH with T63R, G66D, K105A
# VL: B1 VL
# notes: as for B4
# B26: anti-IL-6 antibody, heavy chain T65V, G66D / light chain WT (antibody, human IgG1, V domains shown)
# VH: B1 VH with T65V, G66D, K105A
# VL: B1 VL
# notes: as for B4
# B27: anti-IL-6 antibody, heavy chain T63W, G66D / light chain WT (antibody, human IgG1, V domains shown)
# VH: B1 VH with T63W, G66D, K105A
# VL: B1 VL
# notes: as for B4
# B28: anti-IL-6 antibody, heavy chain T63V, G66D / light chain WT (antibody, human IgG1, V domains shown)
# VH: B1 VH with T63V, G66D, K105A
# VL: B1 VL
# notes: as for B4
# B29: anti-IL-6 antibody, heavy chain T65K, G66D / light chain WT (antibody, human IgG1, V domains shown)
# VH: B1 VH with T65K, G66D, K105A
# VL: B1 VL
# notes: as for B4
# B30: anti-IL-6 antibody, heavy chain T65R, G66D / light chain WT (antibody, human IgG1, V domains shown)
# VH: B1 VH with T65R, G66D, K105A
# VL: B1 VL
# notes: as for B4
# Biological target: T1, recombinant human IL-6 (human, UniProt P05231 30-212)
# T1 construct: bought protein; also called interleukin-6
# Test: Biacore, Fab lysate over IL-6 chip, 25 C
# Protocol: Fab libraries were constructed containing random single point mutations for all 71 CDR positions, excluding substitutions for Cys, Met and Asn due to the chemical liabilities associated with these amino acids. Small-scale expression in 96 well plates format was utilized for screening the Fab libraries. E. coli colonies (TG1 cells, Zymo Research) containing randomized single point mutations were picked into 96 well plates (1.5 mL) and grown overnight at 30° C. in LB Amp+2% glucose. A separate 96 well plate was created on the following day by removing 100 μL of culture and adding 100 μL of 30% glycerol, then stored at −80° C. The remaining culture was spun down for 20 min and later resuspended in 1.5 mL of LB Amp containing 1 mM IPTG for induction of protein expression at 30° C. After 5 hours, cells were spun down, resuspended in 500 μL of HBS-EP+ buffer and lysed by one freeze/thaw cycle. Lysates were centrifuged for 30 minutes and vacuum filtered (200 μL) into round bottom 96 well plates for Biacore analysis.
# Three ranges of antigen density (100-150 RU, 300-400 RU, 400-600 RU) were obtained by using variable flow times for each chip channel, later blocked with ethanolamine. Supernatants of the 96-well filtered culture lysates were injected at […] for 120 seconds. Fitting of dissociation curves (300 seconds) to single exponential decay curve was used for the determination of dissociation rates (koff). Chip surfaces were regenerated with 10 mM Glycine pH 1.7 solution injected at 50 μL/min during 60 seconds after every cycle of sample binding and dissociation.
# T1 sequence (P05231 30-212 limits assumed): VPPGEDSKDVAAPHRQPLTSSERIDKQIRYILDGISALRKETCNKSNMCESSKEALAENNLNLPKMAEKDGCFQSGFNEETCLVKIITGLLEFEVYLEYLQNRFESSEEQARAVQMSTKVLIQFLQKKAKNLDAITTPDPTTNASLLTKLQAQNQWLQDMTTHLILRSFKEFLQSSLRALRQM
row,koff [s⁻¹],Binder
1,0.00401,B1
2,0.00378,B2
3,0.00245,B3

# Biological target: T2, human IL-6 (human, UniProt P05231 30-212)
# T2 construct: also called interleukin-6
# Test: SPR (Biacore T200), purified antibody captured on Protein A, IL-6 flowed over, 37 C
# Protocol: (§1) Antibodies were captured on a Protein A chip (GE) by injecting 1:20 cell supernatant dilutions at 10 μL/min for 60 seconds. […] The sensor chip was regenerated by a 60 seconds injection of 10 mM Glycine pH 1.7 at the flow rate of […]. […] For this setup, 1 μg/mL of purified antibody was injected over a Protein A chip at 10 μL/min for 25 seconds. […] The sensor chip was regenerated by a 60 seconds injection of 10 mM Glycine pH 1.7 at flow rate of 50 μL/min. Data analysis for supernatant and purified samples were performed using BIAevaluation software (GE). All sensorgrams were double reference subtracted and fit using a 1:1 Langmuir binding model.
# T2 sequence (P05231 30-212 limits assumed): as above
Kd [nM],koff [s⁻¹],kon [M⁻¹ s⁻¹],Binder
0.113,0.000178,1.57e+06,B4
0.226,0.000128,565000,B5
0.161,0.000235,1.46e+06,B6
0.105,0.000185,1.77e+06,B7
0.148,0.000262,1.77e+06,B8
0.193,0.000251,1.3e+06,B9
0.147,0.000252,1.72e+06,B10

# Biological target: T2, human IL-6
# Test: SPR (Biacore T200), antibody from cell supernatant captured on Protein A, IL-6 flowed over, 37 C
# Protocol: Those four positions were selected based on their tolerance for mutations as observed in bacterial and mammalian screens. […] These cultures were centrifuged and supernatants containing secreted antibodies were harvested and diluted in HBS-EP+ running buffer (1:20 ratio).
# as §1
Kd [nM],koff [s⁻¹],kon [M⁻¹ s⁻¹],Binder
0.215,0.000392,1.83e+06,B4
0.381,0.000255,670000,B5
0.203,0.000442,2.18e+06,B11
0.369,0.000568,1.54e+06,B12
0.185,0.000461,2.49e+06,B6
0.226,0.00037,1.64e+06,B13
0.222,0.000364,1.64e+06,B14
0.184,0.000464,2.52e+06,B15
0.21,0.000436,2.08e+06,B16
0.136,0.000397,2.92e+06,B7
0.223,0.000348,1.56e+06,B17
0.21,0.000383,1.82e+06,B18
0.224,0.000361,1.61e+06,B19
0.212,0.000375,1.77e+06,B20
0.21,0.000383,1.82e+06,B21
0.194,0.000427,2.2e+06,B22
0.219,0.000356,1.63e+06,B23
0.158,0.000517,3.28e+06,B8
0.123,0.000218,1.77e+06,B24
0.173,0.00046,2.66e+06,B25
0.203,0.000408,2.01e+06,B9
0.175,0.000504,2.88e+06,B26
0.251,0.000427,1.7e+06,B27
0.217,0.000399,1.84e+06,B28
0.262,0.000412,1.57e+06,B29
0.222,0.000444,2e+06,B30
0.178,0.000464,2.61e+06,B10
